Data published in FireProtDB (doi:10.1021/bi00105a011).

B1: Lysozyme C, P61626 (parent)
chain: MKALIVLGLVLLSVTVQGKVFERCELARTLKRLGMDGYRGISLANWMCLAKWESGYNTRATNYNAGDRSTDYGIFQINSRYWCNDGKTPGAVNACHLSCSALLQDNIADAVACAKRVVRDPQGIRAWVAWRNRCQNRDVRQYVQGCGV

Variants of: B1
Settings: Homo sapiens; pH 3; 25 °C; GdnHCl; CD; glycine-HCl 40 mM; reversible: yes (100%); structure 1LZ1; whole UniProt chain shown

| Variant | ddG of mutation (higher = less stable) [kcal/mol] | denaturant m value [kcal/mol/M] | denaturant midpoint (higher = more stable) [M] | unfolding free energy [kcal/mol] |
| --- | --- | --- | --- | --- |
| V128P | -2.4 | 6.69 | 3.05 | 12.1 |
| P89G | 1.2 | 5.43 | 2.63 | 8.5 |
| A65P | -1.1 | 5.5 | 3.3 | 10.8 |
| P121G | 0 | 5.55 | 2.95 | 9.7 |
| P89G P121G | 1.1 | 5.48 | 2.64 | 8.6 |
| D109P | 0.8 | 5.42 | 2.78 | 8.9 |
